Data reported in patent US20230192897A1 (NUMAB THERAPEUTICS, published 2023).
Values belong to the binder of their own block, whether it stands above or below them.

Key:
Fc tagged human PDL1 = target: T1, Fc tagged human PDL1 (human, UniProt Q9NZQ7 19-239); assay: SPR
T1 construct: Bought (Sino Biological, cat. 10084-H02H); captured on the SPR chip; also called PDL1-Fc chimeric protein
Method in brief: (§1)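 Kinetics were fitted with a one-to-one Langmuir model to give apparent ka, kd and KD. Binders at 0.12-90 nM (three-fold series) flowed 3 min, with 10 min dissociation and 3 M MgCl₂ regeneration, on a Biacore T200.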

Fc tagged human CD137 = target: T2, Fc tagged human CD137 (human, UniProt Q07011 24-186); assay: SPR
T2 construct: also called CD137-Fc chimeric protein
Method in brief: as §1

human PDL1 on cells = human PDL1 on cells (human, UniProt Q9NZQ7 19-290); assay: cell-based or functional assay
[1] = target: T3, CD137 on Jurkat NFkB reporter cells (human, UniProt Q07011 24-255); assay: cell-based or functional assay
[2] = target: T3, CD137 on Jurkat NFkB reporter cells; assay: cell-based or functional assay; remark: listed apart in the source
biotinylated human PDL1 [3] = target: T4, biotinylated human PDL1 (human, UniProt Q9NZQ7 19-238, limits assumed, biotinylated); assay: competition ELISA B7.1/PDL1
T4 construct: also called biotinylated PDL1
Method in brief: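 Test mixtures containing biotinylated human PDL1 were pre-incubated 1 h at room temperature, then incubated 1.5 h on the plate under agitation. Bound PDL1 detected with 10 ng/ml streptavidin-polyHRP40 and TMB, stopped at 6 min with HCl, read at 450 nm minus 690 nm. IC₅₀ from 4PL fit.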

biotinylated human PDL1 [4] = target: T4, biotinylated human PDL1; assay: competition ELISA PD-1/PDL1
human serum albumin = target: T5, human serum albumin (human, UniProt P02768 25-609); assay: SPR, SA coupled to chip, pH 5.5
T5 construct: Coupled directly to the CM5 chip; also called HSA; human SA
Method: Affinity of molecules to serum albumin (SA) of the different species was determined by SPR measurements using a Biacore T200 device (GE Healthcare). SA was directly coupled to a CM5 sensor chip (GE Healthcare) using amine coupling chemistry. […] The assay was run in a 1× PBS-Tween buffer at pH 5.5.

[5] = target: T6, cynomolgus PDL1-Fc chimeric protein (cynomolgus monkey, UniProt G7PSE7 19-239); assay: SPR
T6 construct: PDL1-Fc chimeric protein from different species captured on the chip
Method in brief: as §1

Kd (Fc tagged human PDL1): 0.0045 nM
Kd (Fc tagged human CD137): 1.5 nM
koff (Fc tagged human CD137): 0.00071 s⁻¹
kon (Fc tagged human CD137): 460000 M⁻¹ s⁻¹
IC50 (ng/ml), NF-AT potency assay, +HSA (human PDL1 on cells): 16.2 ng/mL
rel. IC50 (avelumab/test), +HSA (human PDL1 on cells): 1.45 fold
IC50 (ng/ml) (EC50 in Table 16C), NFkB reporter, HCC827 + IFNg, 24 h, +HSA [1]: 4.42 ng/mL
rel. IC50 (PRO1186/test), 24 h [1]: 1.51 fold
Area under the curve (calculated using PRO885 normalized data), first line (6 h by the order of the upper part) [2]: 196
Area under the curve (calculated using PRO885 normalized data), second line (24 h by the order of the upper part) [2]: 180
EC50 [ng/ml], NF-kB reporter, HCC827 + IFNg, +HSA, 6 h [2]: 9.8 ng/mL
IC10/EC90 ratio, first line (6 h by the order of the upper part) [2]: 72.4
IC10/EC90 ratio, second line (24 h by the order of the upper part) [2]: 1240
Maximum NF-kB activation (rel. to PRO1186) [%], first line (6 h by the order of the upper part) [2]: 110%
Maximum NF-kB activation (rel. to PRO1186) [%], second line (24 h by the order of the upper part) [2]: 98.6%
rel. Area under the curve (AUCsample/AUCPRO1186), first line (6 h by the order of the upper part) [2]: 1.03 fold
rel. Area under the curve (AUCsample/AUCPRO1186), second line (24 h by the order of the upper part) [2]: 0.87 fold
rel. EC50 (EC50, PRO1186/EC50, sample), NF-kB reporter, 6 h [2]: 1.31 fold
rel. EC50 (EC50, PRO1186/EC50, sample), NF-kB reporter, 24 h [2]: 1.51 fold
rel. IC10/EC90 (ratio of sample/ratio of PRO1186), first line (6 h by the order of the upper part) [2]: 0.22 fold
rel. IC10/EC90 (ratio of sample/ratio of PRO1186), second line (24 h by the order of the upper part) [2]: 3.94 fold
IC50 (biotinylated human PDL1 [3]): 2.42 ng/mL
rel. IC50 (IC50 avelumab/IC50 test) (biotinylated human PDL1 [3]): 1.15 fold
IC50 (biotinylated human PDL1 [4]): 1.92 ng/mL
rel. IC50 (IC50 avelumab/IC50 test) (biotinylated human PDL1 [4]): 0.73 fold
Kd (human serum albumin): 1 nM
koff (human serum albumin): 0.0003 s⁻¹
kon (human serum albumin): 290000 M⁻¹ s⁻¹
B1: PRO1430 (other)
chain: DIQMTQSPSSLSASVGDRVTITCQASQSIGTYLAWYQQKPGKAPKLLIYRAFILASGVPSRFSGSGSGTDFTLTISSLQPEDFATYYCQSNFYSDSTTIGPNAFGTGTKVTVLGGGGGSEVQLVESGGGLVQPGGSLRLSCAASGFSFSNSYWICWVRQAPGKCLEWIGCTFVGSSDSTYYANWAKGRFTISRDNSKNTVYLQMNSLRAEDTAVYYCARHPSDAVYGYANNLWGQGTLVTVSSGGGGSGGGGSGGGGSGGGGSIQMTQSPSSLSASVGDRVTITCQASQSINNVLAWYQQKPGKAPKLLIYRASTLASGVPSRFSGSGSGTDFTLTISSLQPEDFATYYCQSSYGNYGDFGCGTKVTVLGGGGGSQVQLQESGPGLVKPSETLSLTCKVSGFSFNSDYWIYWIRQPPGKGLEWIGSIYGGSSGNTQYASWAQGRVTISVDSSKNQFSLKLSSVTAADTAVYYCARGYVDYGGATDLWGQGTLVTVSSGGGGSGGGGSIQMTQSPSSLSASVGDRVTITCQSSESVYSNNQLSWYQQKPGQPPKLLIYDASDLASGVPSRFSGSGSGTDFTLTISSLQPEDFATYYCAGGFSSSSDTAFGGGTKLTVLGGGGGSGGGGSGGGGSGGGGSEVQLVESGGGLVQPGGSLRLSCAASGFSLSSNAMGWVRQAPGKGLEYIGIISVGGFTYYASWAKGRFTISRDNSKNTVYLQMNSLRAEDTATYFCARDRHGGDSSGAFYLWGQGTLVTVSS
notes: trispecific scDb-scFv; also called 38-02-A04 sc13 scDb-i/37-20-B03 sc01 scDb-o/19-01-H04 sc03 scFv

Kd (Fc tagged human PDL1): ≤ 0.0017 nM
fold higher affinity against the STR graft of clone 33-03-G02 (Fc tagged human PDL1): ~2 fold
koff (Fc tagged human PDL1): < 2e-05 s⁻¹
kon (Fc tagged human PDL1): 5.9e+06 M⁻¹ s⁻¹
koff [5]: < 1e-05 s⁻¹
kon [5]: 6e+06 M⁻¹ s⁻¹
IC50 (ng/ml), NF-AT potency assay (human PDL1 on cells): 11.1 ng/mL
rel. IC50 (avelumab/test) (human PDL1 on cells): 3.07 fold
IC50 (biotinylated human PDL1 [3]): 6.36 ng/mL
rel. IC50 (IC50 avelumab/IC50 test) (biotinylated human PDL1 [3]): 2.34 fold
IC50 (biotinylated human PDL1 [4]): 0.5 ng/mL
rel. IC50 (IC50 avelumab/IC50 test) (biotinylated human PDL1 [4]): 4.16 fold
B2: PRO997 (scFv)
scFv: DIQMTQSPSSLSASVGDRVTITCQASQSIGTYLAWYQQKPGKAPKLLIYRAFILASGVPSRFSGSGSGTDFTLTISSLQPEDFATYYCQSNFYSDSTTIGPNAFGTGTKVTVLGGGGGSGGGGSGGGGSGGGGSQVQLQESGPGLVKPSETLSLTCKVSGFSFNSDYWIYWIRQPPGKGLEWIGSIYGGSSGNTQYASWAQGRVTISVDSSKNQFSLKLSSVTAADTAVYYCARGYVDYGGATDLWGQGTLVTVSS
notes: also called 37-20-B03 sc01 scFv; 37-20-B03 CDR

koff (Fc tagged human PDL1): 0.00016 s⁻¹
kon (Fc tagged human PDL1): 2.1e+06 M⁻¹ s⁻¹
koff [5]: 0.0002 s⁻¹
kon [5]: 2.2e+06 M⁻¹ s⁻¹
IC50 (ng/ml), NF-AT potency assay (human PDL1 on cells): 42.9 ng/mL
rel. IC50 (avelumab/test) (human PDL1 on cells): 0.73 fold
IC50 (biotinylated human PDL1 [3]): 12.9 ng/mL
rel. IC50 (IC50 avelumab/IC50 test) (biotinylated human PDL1 [3]): 1.16 fold
IC50 (biotinylated human PDL1 [4]): 3.4 ng/mL
rel. IC50 (IC50 avelumab/IC50 test) (biotinylated human PDL1 [4]): 0.61 fold
B3: PRO830 (scFv)
scFv: DIQMTQSPSSLSASVGDRVTITCQASQSINDYLAWYQQKPGKAPKLLIYKASTLASGVPSRFSGSGSGTDFTLTISSLQPEDFATYYCQQGYIITDIDNVFGTGTKVTVLGGGGGSGGGGSGGGGSGGGGSQVQLQESGPGLVKPSETLSLTCKVSGFSFSSGYDMCWIRQPPGKGLEWIGCVVAGSVDITYYASWAKGRVTISVDSSKNQFSLKLSSVTAADTAVYYCARKDAYSDAFNLWGQGTLVTVSS
notes: anti-PDL1 scFv; also called 33-03-G02 sc01 scFv; 33-03-G02 CDR
